# Bridge positions count the residues as written; N and C are the ends. Side chains are listed from the residue outwards. * marks the point of attachment. Biotin = O=C1N[C@H]2[C@H](CS[C@H]2CCCCC(=O)*)N1; PEG = not defined here
# T1: chemokine (C-C motif) receptor 10 (CCR10) (human) (UniProt P46092)
# T1 sequence (looked up): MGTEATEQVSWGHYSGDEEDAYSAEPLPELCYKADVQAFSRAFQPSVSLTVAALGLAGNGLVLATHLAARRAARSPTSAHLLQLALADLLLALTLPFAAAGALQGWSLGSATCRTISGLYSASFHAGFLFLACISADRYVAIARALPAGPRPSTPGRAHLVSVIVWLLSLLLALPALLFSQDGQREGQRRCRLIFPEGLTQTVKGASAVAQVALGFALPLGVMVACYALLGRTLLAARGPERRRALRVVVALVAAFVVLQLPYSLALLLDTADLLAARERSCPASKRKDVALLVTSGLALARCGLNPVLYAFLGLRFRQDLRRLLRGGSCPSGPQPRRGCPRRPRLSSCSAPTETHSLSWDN
# T2: chemokine (C-C motif) receptor 4 (CCR4) (human) (UniProt P51679)
# T2 sequence (looked up): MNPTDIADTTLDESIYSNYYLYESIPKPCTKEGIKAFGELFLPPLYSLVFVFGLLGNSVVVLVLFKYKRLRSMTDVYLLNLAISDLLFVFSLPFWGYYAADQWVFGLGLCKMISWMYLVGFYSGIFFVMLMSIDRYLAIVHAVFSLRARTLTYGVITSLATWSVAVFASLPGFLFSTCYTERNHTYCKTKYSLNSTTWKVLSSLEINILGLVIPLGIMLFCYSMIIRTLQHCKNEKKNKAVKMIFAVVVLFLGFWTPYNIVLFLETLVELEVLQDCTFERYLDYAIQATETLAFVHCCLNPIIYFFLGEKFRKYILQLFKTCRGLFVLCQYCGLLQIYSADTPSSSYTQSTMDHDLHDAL
# B1: recombinant native CTAC (ligand, UniProt Q9Y4X3 25-112, looked up)
# chain: FLLPPSTACCTQLYRKPLSDKLLRKVIQVELQEADGDCHLQAFVLHLAQRSICIHPQNPSLSQWFEHQERKLHGTLPKLNFGMLRKMG
# B2: biotinITAC (CXCL11): ITAC derivatised with Biotin at an additional C-terminal Lysine after a PEG spacer (ligand)
# chain: FPMFKRGRCLCIGPGVKAVKVADIEKASIMYPSNNCDKIEVIITLKENKGQRCLNPKSKQARLIIKKVERKNFX
# modifications: X74 = PEG-K(Biotin)
# B3: recombinant native ITAC (ligand, UniProt O14625 22-94, looked up)
# chain: FPMFKRGRCLCIGPGVKAVKVADIEKASIMYPSNNCDKIEVIITLKENKGQRCLNPKSKQARLIIKKVERKNF
# B4: recombinant native MDC (ligand, UniProt O00626 25-93, looked up)
# chain: GPYGANMEDSVCCRDYVRYRLPLRVVKHFYWTSDSCPRPGVVLLTFRDKEICADPRVPWVKMILNKLSQ
# B5: biotinCTAC (CCL27): CTAC derivatised at Lys(87) with PEG-Biotin (ligand)
# chain: FLLPPSTACCTQLYRKPLSDKLLRKVIQVELQEADGDCHLQAFVLHLAQRSICIHPQNPSLSQWFEHQERKLHGTLPKLNFGMLRKK([PEG-Biotin])G-OH
# modifications: disulfide 10-53, 9-38; reading uncertain
# Tests used:
# Experiment in all cases: cell-based or functional assay
# [1] = target: T1, chemokine (C-C motif) receptor 10 (CCR10) (human)
# [2] = target: chemokine (C-X-C motif) receptor 3 (CXCR3) (human) (UniProt P49682)
# [3] = target: T2, chemokine (C-C motif) receptor 4 (CCR4) (human)
# Chain of chemokine (C-X-C motif) receptor 3 (CXCR3) (human) (P49682 whole entry): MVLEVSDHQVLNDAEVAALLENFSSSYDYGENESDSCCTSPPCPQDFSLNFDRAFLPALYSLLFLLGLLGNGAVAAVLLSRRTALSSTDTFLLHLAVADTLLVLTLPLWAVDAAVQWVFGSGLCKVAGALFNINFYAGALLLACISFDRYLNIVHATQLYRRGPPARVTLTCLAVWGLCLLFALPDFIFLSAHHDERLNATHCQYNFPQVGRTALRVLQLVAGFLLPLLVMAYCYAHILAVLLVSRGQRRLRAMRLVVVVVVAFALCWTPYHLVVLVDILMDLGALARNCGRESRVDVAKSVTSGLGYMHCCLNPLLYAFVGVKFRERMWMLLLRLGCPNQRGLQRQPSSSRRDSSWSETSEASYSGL
Binder,"EC50 (agonist activity, Aequorin assay) [1]","EC50 (agonist activity, Aequorin assay) [2]",other results
B1,33.5 nM,–,–
B2,–,15.7 nM,–
B3,–,0.7 nM,–
B4,–,–,"EC50 (agonist activity, Aequorin assay) [3]: 3.6 nM"
B5,49.4 nM,–,–
